Experimental data reported in US20220110894A1 (ACCUBIT LLC BIOTECHNOLOGY, published 2022).
Positions count from the first letter of the chain named. Numbers in names are those of the source.

How the values were obtained:
[1] = biological target: the molecule itself; experiment: SEC, non-reducing SDS-PAGE and TEM; self-association of rIgA duplexes into poly-rIgA
Description: Before running on SEC, samples were treated with the drugs at indicated concentrations at 37° C. for one hour.
(§1) In the meantime, the SEC column was also equilibrated with PBS supplemented with the reducing agent at the same concentration. For running SEC, 100 μL of the recombinant IgA (concentration varies between 1 mg/mL and 8 mg/mL) or purified native human IgA1 (˜1 mg/mL) was loaded to the column and UV absorption was recorded following elution. Recombinant IgA typically formed two elution peaks: a minor peak of ˜800 kDa poly-rIgA followed by a major peak of ˜170 kDa of monomeric rIgA. The ratios between poly-rIgA and mono-rIgA were calculated as between the corresponding areas under the curve (AUC), and the treatment effect of the thiol agents was judged by the reduction of the poly-rIgA level with a compensatory increase of the mono-rIgA content.
To further investigate specific cysteine residue(s) involved in IgA complexes, expression vectors were constructed to produce recombinant IgA (rIgA) Fc segments of rat and human sequences (FIG. 2, part A) as discussed above. Rat IgA analogs were expressed in BL21 DE3 strain of E. coil and recombinant protein were purified from the bacterial lysate using Histrap HP columns (GE Healthcare) by running fast protein liquid chromatography (FPLC). […]

[2] = biological target: the molecule itself; experiment: SEC, self-association into poly-rIgA
Description: as §1
Considering that the fragment contained Cys311 and Cys471 that, in the absence of J-chain and SC, were in their free forms and available for connecting other rIgA units, mutagenesis studies were conducted of these two cysteines. Cys311 and Cys471 were either individually, or together, mutated to serine (S) as discussed above. […] By examining the SEC traces of these mutants, it was noticed that, while the monomers of all variants appeared the same, there were dramatic differences in the poly-rIgA contents. […] Meanwhile, C311S-alone still had poly-rIgA contents, albeit eluted at a different time in SEC than the wild-type protein (FIG. 3, part F). […]

[3] = biological target: the molecule itself; experiment: SEC, self-association into poly-rIgA1

B1: wild-type rat IgA-Fc segment of CH2-CH3-TP (recombinant rat rIgA) (other)
chain: SCSLVCRPRLSLQRPALEDLLLGSEASLTCTLRGLKEPTGAVFTWQPTTGKDAVQKEAVQDSCGCYTVSSVLPGCAERWNNGETFTCTATHPEFETPLTGEIAKVTENTFPPQVHLLPPPSEELALNELVSLTCLVRGFNPKDVLVRWLQGNEELPSESYLVFEPLREPGEGAITYLVTSVLRVSAETWKQGAQYSCMVGHEALPMSFTQKTIDRLSGKPTNVNVSVIMSEGDGICY
notes: Expressed in E. coli BL21 DE3; Two chains form a duplex called mono-rIgA; poly-rIgA is its disulfide-linked self-aggregate; also called mono-rIgA; poly-rIgA; not shown: N-terminal 6xHis-tag from the PET30a vector
- binding result [1]: binds

B2: rat rIgA C311S single mutant (other)
chain: B1 chain with C75S
notes: also called C311S-alone; not shown: N-terminal 6xHis-tag from the PET30a vector
- binding result [2]: binds

B3: human rIgA1-Fc (human IgA1-Fc CH2-CH3-TP) (other)
chain: SCCHPRLSLHRPALEDLLLGSEANLTCTLTGLRDASGVTFTWTPSSGKSAVQGPPERDLCGCYSVSSVLPGCAEPWNHGKTFTCTAAYPESKTPLTATLSKSGNTFRPEVHLLPPPSEELALNELVTLTCLARGFSPKDVLVRWLQGSQELPREKYLTWASRQEPSQGTTTFAVTSILRVAAEDWKKGDTFSCMVGHEALPLAFTQKTIDRLAGKPTHVNVSVVMAEVDGTCY
notes: Produced in HEK293 cells, secreted; also called hu-rIgA; wild-type rIgA1; not shown: 6xHis-tag at the N-terminus after the IL-2 signal peptide (secreted)
- binding result [3]: binds
